One block for each binder: values may come before it.
How the values were obtained:
[1] = molecular target: T1, IL-18R on HEK-Blue IL18R reporter cells (UniProt Q13478 19-541; O95256 20-599); test: cell-based or functional assay
T1 sequence (looked up) 1: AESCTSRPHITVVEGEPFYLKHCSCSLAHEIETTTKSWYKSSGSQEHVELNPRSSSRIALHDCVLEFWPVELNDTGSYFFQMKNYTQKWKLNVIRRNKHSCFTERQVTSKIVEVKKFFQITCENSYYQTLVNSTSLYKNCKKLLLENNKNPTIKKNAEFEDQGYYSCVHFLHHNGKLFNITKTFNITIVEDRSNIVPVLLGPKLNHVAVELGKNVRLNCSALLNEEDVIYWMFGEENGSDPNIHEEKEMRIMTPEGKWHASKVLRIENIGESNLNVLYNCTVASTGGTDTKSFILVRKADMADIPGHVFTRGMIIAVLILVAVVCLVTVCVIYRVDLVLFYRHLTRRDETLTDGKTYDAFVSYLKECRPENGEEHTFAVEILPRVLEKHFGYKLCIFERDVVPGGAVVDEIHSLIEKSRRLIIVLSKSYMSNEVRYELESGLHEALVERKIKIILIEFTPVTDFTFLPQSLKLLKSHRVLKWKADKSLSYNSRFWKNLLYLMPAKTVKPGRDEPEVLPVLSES
T1 sequence (looked up) 2: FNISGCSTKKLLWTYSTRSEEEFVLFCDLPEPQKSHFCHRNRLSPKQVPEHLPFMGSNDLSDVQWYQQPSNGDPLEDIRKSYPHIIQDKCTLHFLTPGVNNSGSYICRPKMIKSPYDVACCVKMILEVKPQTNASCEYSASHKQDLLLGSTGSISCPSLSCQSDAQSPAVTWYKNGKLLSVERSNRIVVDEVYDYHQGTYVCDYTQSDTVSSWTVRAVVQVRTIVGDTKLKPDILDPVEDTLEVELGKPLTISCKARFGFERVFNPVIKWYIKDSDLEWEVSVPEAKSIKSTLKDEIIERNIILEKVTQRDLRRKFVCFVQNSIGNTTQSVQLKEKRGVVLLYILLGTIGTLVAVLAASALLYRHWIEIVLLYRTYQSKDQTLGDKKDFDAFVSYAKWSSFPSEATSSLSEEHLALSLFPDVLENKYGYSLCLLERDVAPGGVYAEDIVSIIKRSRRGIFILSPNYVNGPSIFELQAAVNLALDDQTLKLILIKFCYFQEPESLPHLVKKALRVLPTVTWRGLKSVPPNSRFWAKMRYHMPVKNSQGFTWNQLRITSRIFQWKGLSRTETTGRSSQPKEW

[2] = molecular target: T1, IL-18R on HEK-Blue IL18R reporter cells; test: cell-based or functional assay; remark: listed apart in the source
[3] = molecular target: T1, IL-18R on HEK-Blue IL18R reporter cells; test: cell-based or functional assay; remark: listed apart in the source
His-tagged human IL-18BP = molecular target: T2, His-tagged human IL-18BP (human, UniProt O95998 31-194, limits assumed); test: AlphaLISA of free IL-18BP: IL-18 analyte titrated in the presence of 5 ng/ml His-tagged human IL-18BP; loss of free IL-18BP signal
T2 construct: also called human IL-18BP-His
T2 sequence (looked up): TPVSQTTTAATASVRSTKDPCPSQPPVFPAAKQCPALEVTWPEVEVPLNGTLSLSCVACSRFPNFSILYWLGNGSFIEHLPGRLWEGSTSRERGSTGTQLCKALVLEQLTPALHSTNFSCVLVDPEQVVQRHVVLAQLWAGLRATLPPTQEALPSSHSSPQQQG

[4] = molecular target: T3, recombinant biotinylated human FcRn (human, UniProt P55899 24-297; P61769 21-119, limits assumed, biotinylated); test: AlphaLISA competition at pH 6; competitor human IgG acceptor beads
T3 construct: Kit reagent; also called human neonatal Fc receptor
Experimental: The interaction of the unmodified and of conjugated anti-PD1 antibodies with the human neonatal Fc receptor (FcRn) at pH 6 was measured using the AlphaLISA® Human FcRn Binding Kit (AL3095C) from Perkin Elmer (Schwerzenbach, Switzerland).
After 90 min at 23° C. in the dark, AlphaLISA® signal was measured on an EnSpire plate reader (Excitation at 680 nm, Emission at 615 nm) from Perkin Elmer (Schwerzenbach, Switzerland).

[5] = molecular target: T4, Biotinylated Recombinant Human PD-1/CD279-Fc Chimera (human, UniProt Q15116 25-167, biotinylated); test: ELISA; antibody coated, biotinylated human PD-1-Fc titrated
T4 construct: Bought (Biolegend #789406); also called recombinant biotinylated human PD-1
Experimental: (§1) The interaction of the unmodified antibodies and corresponding IL-18 immunocytokines with relevant immune cell associated antigen are measured by ELISA assay. For these studies, Corning high-binding half-area plates (Fisher Scientific, Reinach, Switzerland) are coated overnight at 4° C. with 25 μl of unmodified antibodies corresponding IL-18 immunocytokines at 5 μg/ml in PBS. Plates are then washed four times with 100 μl of PBS-0.02% Tween20. Plate surfaces are blocked with 25 μl of PBS-0.02% Tween20-1% BSA at 37° C. during 1h. […] Plates are then washed four times with 100 μl of PBS-0.02% Tween20. Twenty-five microliters of Streptavidin-Horseradish peroxidase (#RABHRP3, Merck, Buchs, Switzerland) diluted at 1:500 into PBS-0.02%Tween20-0.1% BSA are added to each well and incubated at Room Temperature during 30 min. Plates are then washed four times with 100 μl of PBS-0.02% Tween20. Fifty microliters of TMB substrate reagent (#CL07, Merck, Buchs, Switzerland) are added to each well and incubated at 37° C. during 5 min. After 5 min at 37° C., Horseradish peroxidase reaction is stopped by adding 50 μl/well of 0.5M H2SO₄ stop solution. ELISA signal is then measured at 450 nm on an ENSPIRE® plate reader from Perkin Elmer (Schwerzenbach, Switzerland).

[6] = molecular target: T4, Biotinylated Recombinant Human …; test: ELISA: fusion immunocytokine coated on the plate (5 µg/ml), biotinylated human PD-1-Fc titrated (x-axis, Concentration (nM)), streptavidin-HRP/TMB, 450 nm
Experimental: as §1

[7] = molecular target: T3, recombinant biotinylated human FcRn; test: AlphaLISA competition at pH 6: test molecule titrated against human IgG acceptor beads for biotinylated human FcRn on streptavidin donor beads; normalized signal
[8] = molecular target: T3, recombinant biotinylated human FcRn; test: AlphaLISA competition at pH 6: test antibody titrated against human IgG acceptor beads for biotinylated human FcRn on streptavidin donor beads; normalized signal

EC50 (read off the curve) [1]: ~0.05 pM
IL-18R Hek Blue assay EC50 [2]: 0.057 pM
EC50, HEK-Blue IL18R SEAP reporter [3]: 0.034 pM
IC50 (read off the curve) (His-tagged human IL-18BP): ~9 nM
B1: IL-18 polypeptide SEQ ID NO: 30 (E6K, V11I, C38A, K53A, T63A, C76A, C127A) (ligand)
chain: YFGKLKSKLSIIRNLNDQVLFIDQGNRPLFEDMTDSDARDNAPRTIFIISMYADSQPRGMAVAISVKCEKISTLSAENKIISFKEMNPPDNIKDTKSDIIFFQRSVPGHDNKMQFESSSYEGYFLAAEKERDLFKLILKKEDELGDRSIMFTVQNED
notes: also called C086; IL-18 variant

IL-18R Hek Blue assay EC50 [2]: > 200 pM
Kd [4]: 12.5 nM
Kd [5]: 0.0389 nM
EC50 (read off the curve) [6]: ~0.03 nM
IC50 (read off the curve) [7]: ~10 nM
B2: CMP2001 (other)
heavy 1: QVQLVQSGAEVKKPGASVKVSCKASGYTFTSYYMYWVRQAPGQGLEWMGGVNPSNGGTNFNEKFKSRVTITADKSTSTAYMELSSLRSEDTAVYYCARRDYRYDMGFDYWGQGTTVTVSSASTKGPSVFPLAPCSRSTSESTAALGCLVKDYFPEPVTVSWNSGALTSGVHTFPAVLQSSGLYSLSSVVTVPSSSLGTKTYTCNVDHKPSNTKVDKRVESKYGPPCPPCPAPEFLGGPSVFLFPPKPKDTLMISRTPEVTCVVVDVSQEDPEVQFNWYVDGVEVHNAKTKPREEQFNSTYRVVSVLTVLHQDWLNGKEYKCKVSNKGLPSSIEKTISKAKGQPREPQVYTLPPSQEEMTKNQVSLWCLVKGFYPSDIAVEWESNGQPENNYKTTPPVLDSDGSFFLYSRLTVDKSRWQEGNVFSCSVMHEALHNRFTQKSLSLSLGK
heavy 2: QVQLVQSGAEVKKPGASVKVSCKASGYTFTSYYMYWVRQAPGQGLEWMGGVNPSNGGTNFNEKFKSRVTITADKSTSTAYMELSSLRSEDTAVYYCARRDYRYDMGFDYWGQGTTVTVSSASTKGPSVFPLAPCSRSTSESTAALGCLVKDYFPEPVTVSWNSGALTSGVHTFPAVLQSSGLYSLSSVVTVPSSSLGTKTYTCNVDHKPSNTKVDKRVESKYGPPCPPCPAPEFLGGPSVFLFPPKPKDTLMISRTPEVTCVVVDVSQEDPEVQFNWYVDGVEVHNAKTKPREEQFNSTYRVVSVLTVLHQDWLNGKEYKCKVSNKGLPSSIEKTISKAKGQPREPQVYTLPPSQEEMTKNQVSLSCAVKGFYPSDIAVEWESNGQPENNYKTTPPVLDSDGSFFLVSRLTVDKSRWQEGNVFSCSVMHEALHNHYTQKSLSLSLGKGGGGSGGGGSGGGGSYFGKLKSKLSIIRNLNDQVLFIDQGNRPLFEDMTDSDARDNAPRTIFIISMYADSQPRGMAVAISVKCEKISTLSAENKIISFKEMNPPDNIKDTKSDIIFFQRSVPGHDNKMQFESSSYEGYFLAAEKERDLFKLILKKEDELGDRSIMFTVQNED
light: EIVLTQSPATLSLSPGERATISCRASKGVSTSGYSYLHWYQQKPGQAPRLLIYLASYLESGVPARFSGSGSGTDFTLTISSLEPEDFATYYCQHSRELPLTFGTGTKVEIKRTVAAPSVFIFPPSDEQLKSGTASVVCLLNNFYPREAKVQWKVDNALQSGNSQESVTEQDSKDSTYSLSSTLTLSKADYEKHKVYACEVTHQGLSSPVTKSFNRGEC
notes: expressed in CHO K1 cells

IC50 (read off the curve) [8]: ~8 nM
B3: Pembrolizumab/Keytruda (antibody, human IgG4 S228P, kappa)
heavy: not shown
light: EIVLTQSPATLSLSPGERATLSCRASKGVSTSGYSYLHWYQQKPGQAPRLLIYLASYLESGVPARFSGSGSGTDFTLTISSLEPEDFAVYYCQHSRDLPLTFGGGTKVEIKRTVAAPSVFIFPPSDEQLKSGTASVVCLLNNFYPREAKVQWKVDNALQSGNSQESVTEQDSKDSTYSLSSTLTLSKADYEKHKVYACEVTHQGLSSPVTKSFNRGEC
notes: also called Lambrolizumab; MK-3475

EC50, HEK-Blue IL18R SEAP reporter [3]: 1.68 pM
B4: IL-18 polypeptide C141 (SEQ ID NO: 71) (ligand)
chain: GYFGKLKSKLSIIRNLNDQVLFIDQGNRPLFEDMTDSDARDNAPRTIFIISMYADSQPRGMAVAISVKCEKISTLSAENKIISFKEMNPPDNIKDTKSDIIFFQRSVPGHDNKMQFESSSYEGYFLAAEKERDLFKLILKKEDELGDRSIMFTVQNED

EC50, HEK-Blue IL18R SEAP reporter [3]: 14 pM
B5: IL-18 polypeptide C192 (SEQ ID NO: 70) (ligand)
chain: GYFGKLKSKLSIIRNLNDQVLFIDQGNRPLFEDMTDSDARDNAPRTIFIISGYADSQPRGMAVAISVKCEKISTLSAENKIISFKEMNPPDNIKDTKSDIIFFQRSVPGHDNKMQFESSSYEGYFLAAEKERDLFKLILKKEDELGDRSIMFTVQNED
